Measured values from paper PMC8274607, “A Derivative of the D5 Monoclonal Antibody That Targets the gp41 N-Heptad Repeat of HIV-1 with Broad Tier-2-Neutralizing Activity” (Journal of Virology, 2021).

Biological target: T1, covalent biotinylated CCIZN17 (synthetic IZ coiled coil fused to HIV-1 …)
T1 construct: also called NHR mimetic; mimetic of the NHR trimer
Test: BLI; biotinylated CCIZN17 (200 nM) loaded on streptavidin biosensors to 0.4 nm, Octet RED96; Fab in solution at known concentrations, 4 min association, 4 min dissociation; PBS pH 7.4 with 0.1% BSA and 0.05% Tween 20
Conditions: both partners purified

B1: D5_AR Fab (Fab, V domains shown)
VH: QVQLVQSGAEVRKPGASVKVSCKASGDTFSSYAISWVRQAPGQGLEWMGSIIPLFGTAAYAQKFQGRVTITADESTSTAYMELSSLRSEDTAIYYCARDNPTFGAADSWGKGTLVTVSS
VL: DIQMTQSPSTLSASIGDRVTITCRASEGIYHWLAWYQQKPGKAPKLLIYKASSLASGAPSRFSGSGSGTDFTLTISSLQPDDFATYYCQQYSNYPLTFGGGTKLEIK
notes: also called D5_H011_L0; source: Expi293F, transfected, purified (protein G agarose, SEC)
  Kd: 1.6 nM
